Target: bovine brain tubulin (free tubulin) (bovine) (UniProt Q6B856)
Assay: ITC; TOG domain proteins in the syringe (150 μM CLASP2 TOG1, TOG2, TOG3; 200 μM CLIP-ID; 250 μM Stu2 TOG1), 15 μM bovine brain tubulin in the cell; BRB80 with 50 mM NaCl, 25°C; one set of sites model

Kd: 18.8 nM
B1: Stu2 TOG1 (domain or fragment)
chain: MSGEEEVDYTTLPLEERLTYKLWKARLEAYKELNQLFRNSVGDISRDDNIQIYWRDPTLFAQYITDSNVVAQEQAIVALNSLIDAFASSSLKNAHNITLISTWTPLLVEKGLTSSRATTKTQSMSCILSLCGLDTSITQSVELVIPFFEKKLPKLIAAAANCVYELMAAFGLTNVNVQTFLPELLKHVPQLAGHGDRNVRSQTMNLIVEIYKVTGNNSDLLEEILFKKLKPIQVKDLHKLFAKVGDEPSSSKMLFEWEKRELEKKRSQEEEA

Reference: article PMC6035287
